{
  "source": "paper PMC8420505",
  "about": "(2021)",
  "biological_target": "Spike (SARS-CoV-2, UniProt P0DTC2)",
  "experiment": "SPR",
  "data": [
    {"binder": "Clec4g (protein) MNTGEYNKLGSAIEEVSRGQLGRWECYKQRLFFLVLALLVATVLWALILSTLLSSASSKLRVLLSHQDLLRTNASEQKMTLSSLKDDIGACRNCCSVTKAQLQTTLAEFKDIQAKLMEQESILKELQERVTQDLAKASRDRENIRSELFQALEAVKRQNSSCEQCPPSWLPFQGSCYYFSETQATWDTAQSYCGGQGAHLVIVRGLNEQGFLSQHTRGRGYWLGLRAVRHLNKIQGYRWVDGASLNFSHWNSGEPNDSRGHEDCIMMLHSGLWNDAPCTNERDGWICEKRSSCY", "values": [
      {"measurement": "Kd", "value": 1600, "unit": "nM"}
    ]},
    {"binder": "CD209c (protein) MRMHTRLQFLKRVSNVAYSHGQEQAKKEKVYKEMTQLKSQINRLCRPCPWDWTVFQGNCYFFSKFQQNWNDSVNACRKLDAQLVVIKSDDEQSFLQQTSKEKGYAWMGLSDLKHEGRWHWVDGSHLLFSFMKYWNKGEPNNEWEEDCAEFRGDGWNDAPCTIKKYWICKKSAMSCTEK", "values": [
      {"measurement": "Kd", "value": 1000, "unit": "nM"}
    ]}
  ]
}
